From publication PMC11358013, “FANCD2–FANCI surveys DNA and recognizes double- to single-stranded junctions”

Key:
FANCD2 WT;FANCI WT [1] = biological target: T1, FANCD2 WT;FANCI WT (Gallus gallus;Gallus gallus, UniProt Q68Y81;B0I564 1-1439;1-1338, |); assay: cryo-EM; stalled state; 24 bp duplex modelled; EMSA: 50 mM HEPES pH 8.0, 75 mM NaCl, 1 mM TCEP, 20 nM DNA, 20-22 C; switchSENSE: 20 mM HEPES pH 8.0, 75 mM NaCl, 1 mM TCEP, 25 C; cryo-EM and single-molecule:; details: protein: recombinant;recombinant; copies: 1;1; 29 bp duplex; strand 1 has 5' ssDNA 30 nt and 3' ssDNA 40 nt
T1 sequence (Q68Y81 whole entry, chain 1 of 2): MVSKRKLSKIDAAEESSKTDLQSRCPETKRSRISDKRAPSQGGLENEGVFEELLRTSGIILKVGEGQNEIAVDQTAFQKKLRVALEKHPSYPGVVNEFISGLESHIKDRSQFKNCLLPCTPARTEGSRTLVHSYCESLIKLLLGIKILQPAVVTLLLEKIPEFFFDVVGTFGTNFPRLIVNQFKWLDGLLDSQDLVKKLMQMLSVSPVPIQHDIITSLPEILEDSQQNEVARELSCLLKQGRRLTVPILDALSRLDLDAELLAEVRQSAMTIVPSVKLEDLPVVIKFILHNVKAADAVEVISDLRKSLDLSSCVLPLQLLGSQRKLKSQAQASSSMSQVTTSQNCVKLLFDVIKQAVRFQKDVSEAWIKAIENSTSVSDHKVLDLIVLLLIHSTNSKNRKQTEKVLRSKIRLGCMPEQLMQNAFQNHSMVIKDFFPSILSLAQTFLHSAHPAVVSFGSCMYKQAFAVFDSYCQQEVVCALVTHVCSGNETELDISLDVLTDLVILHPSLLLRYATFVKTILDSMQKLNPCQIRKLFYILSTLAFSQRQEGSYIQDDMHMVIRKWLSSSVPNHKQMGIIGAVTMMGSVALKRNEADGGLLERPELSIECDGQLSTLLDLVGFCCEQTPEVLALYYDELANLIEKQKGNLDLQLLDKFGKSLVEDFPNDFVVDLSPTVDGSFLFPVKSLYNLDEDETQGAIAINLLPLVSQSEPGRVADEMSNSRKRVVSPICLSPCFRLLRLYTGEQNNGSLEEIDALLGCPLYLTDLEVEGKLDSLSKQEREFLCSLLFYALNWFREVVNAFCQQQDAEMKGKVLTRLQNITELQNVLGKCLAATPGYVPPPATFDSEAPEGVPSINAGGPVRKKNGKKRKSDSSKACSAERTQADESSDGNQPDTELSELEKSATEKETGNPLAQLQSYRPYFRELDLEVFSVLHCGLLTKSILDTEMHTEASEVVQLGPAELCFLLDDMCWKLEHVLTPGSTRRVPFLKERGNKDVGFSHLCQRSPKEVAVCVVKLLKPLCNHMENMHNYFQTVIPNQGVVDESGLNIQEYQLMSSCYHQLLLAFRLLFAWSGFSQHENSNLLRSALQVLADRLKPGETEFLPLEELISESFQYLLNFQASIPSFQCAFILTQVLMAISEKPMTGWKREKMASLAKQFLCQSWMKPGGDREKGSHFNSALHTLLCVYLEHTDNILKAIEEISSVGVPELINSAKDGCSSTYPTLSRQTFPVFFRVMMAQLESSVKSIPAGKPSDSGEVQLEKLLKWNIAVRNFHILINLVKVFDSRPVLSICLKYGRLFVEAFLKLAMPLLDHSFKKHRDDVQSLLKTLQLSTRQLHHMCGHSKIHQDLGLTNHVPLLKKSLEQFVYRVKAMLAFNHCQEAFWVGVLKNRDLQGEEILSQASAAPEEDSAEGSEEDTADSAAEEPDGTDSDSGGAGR
T1 sequence (B0I564 whole entry, chain 2 of 2): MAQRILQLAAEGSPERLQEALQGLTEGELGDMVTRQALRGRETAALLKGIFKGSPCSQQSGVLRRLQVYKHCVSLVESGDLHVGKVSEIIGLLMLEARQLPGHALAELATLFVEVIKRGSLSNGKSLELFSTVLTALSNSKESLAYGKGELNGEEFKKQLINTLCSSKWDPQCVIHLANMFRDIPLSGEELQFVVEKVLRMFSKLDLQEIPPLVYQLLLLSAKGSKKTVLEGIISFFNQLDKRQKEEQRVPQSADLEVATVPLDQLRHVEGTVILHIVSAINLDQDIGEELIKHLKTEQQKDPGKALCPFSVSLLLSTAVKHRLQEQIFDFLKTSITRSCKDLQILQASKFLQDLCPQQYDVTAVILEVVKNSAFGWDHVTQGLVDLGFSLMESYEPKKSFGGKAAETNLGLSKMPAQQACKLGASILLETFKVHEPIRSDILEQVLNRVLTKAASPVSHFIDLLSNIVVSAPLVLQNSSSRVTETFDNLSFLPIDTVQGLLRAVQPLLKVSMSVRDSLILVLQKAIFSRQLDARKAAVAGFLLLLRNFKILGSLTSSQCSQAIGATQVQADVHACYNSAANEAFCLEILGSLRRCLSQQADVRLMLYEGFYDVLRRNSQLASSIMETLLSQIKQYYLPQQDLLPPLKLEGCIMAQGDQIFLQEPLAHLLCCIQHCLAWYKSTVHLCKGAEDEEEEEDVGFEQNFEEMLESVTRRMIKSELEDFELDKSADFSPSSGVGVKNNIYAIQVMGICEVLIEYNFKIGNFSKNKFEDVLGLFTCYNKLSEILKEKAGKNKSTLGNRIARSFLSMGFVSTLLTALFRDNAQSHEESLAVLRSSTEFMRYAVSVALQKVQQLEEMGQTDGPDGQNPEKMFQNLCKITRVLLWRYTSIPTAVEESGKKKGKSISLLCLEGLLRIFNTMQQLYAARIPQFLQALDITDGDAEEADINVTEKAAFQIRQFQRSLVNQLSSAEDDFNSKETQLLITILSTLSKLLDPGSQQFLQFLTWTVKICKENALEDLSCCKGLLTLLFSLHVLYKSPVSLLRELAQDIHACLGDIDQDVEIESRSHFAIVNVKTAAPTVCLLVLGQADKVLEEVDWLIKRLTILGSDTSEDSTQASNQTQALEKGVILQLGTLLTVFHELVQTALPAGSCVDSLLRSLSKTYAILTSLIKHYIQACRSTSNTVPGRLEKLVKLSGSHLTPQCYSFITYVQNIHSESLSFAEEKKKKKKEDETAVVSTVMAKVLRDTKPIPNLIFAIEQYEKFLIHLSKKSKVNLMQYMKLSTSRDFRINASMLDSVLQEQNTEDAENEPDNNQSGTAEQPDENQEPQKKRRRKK

FANCD2 WT;FANCI WT [2] = biological target: T1, FANCD2 WT;FANCI WT; assay: EMSA; unlabelled D2-I; EMSA: 50 mM HEPES pH 8.0, 75 mM NaCl, 1 mM TCEP, 20 nM DNA, 20-22 C; switchSENSE: 20 mM HEPES pH 8.0, 75 mM NaCl, 1 mM TCEP, 25 C; cryo-EM and single-molecule:; details: protein: recombinant;recombinant; copies: 1;1; label: 3' FAM on P1; blunt
[3] = biological target: FANCD2-ybbR-Cy3;FANCI-ybbR-Cy5 (Gallus gallus;Gallus gallus, UniProt Q68Y81;B0I564 1-1439;1-1338, |); assay: EMSA; double-labelled D2-I, affinity comparable to unlabelled; EMSA: 50 mM HEPES pH 8.0, 75 mM NaCl, 1 mM TCEP, 20 nM DNA, 20-22 C; switchSENSE: 20 mM HEPES pH 8.0, 75 mM NaCl, 1 mM TCEP, 25 C; cryo-EM and single-molecule:; details: protein: recombinant;recombinant; copies: 1;1; label: 3' FAM on P1; blunt
FANCD2-ybbR-Cy3;FANCI-ybbR-Cy5, sequence (Q68Y81 whole entry, chain 1 of 2): as the sequence (Q68Y81 whole entry, chain 1 of 2) above
FANCD2-ybbR-Cy3;FANCI-ybbR-Cy5, sequence (B0I564 whole entry, chain 2 of 2): as the sequence (B0I564 whole entry, chain 2 of 2) above

B1: ss-dsDNA J1/J2 (mixed)
DNA 1: TTTTTTTTTTTTTTTTTTTTTTTTTTTTTTATCGATGTCTCTAGACAGCTGCTCAGGATTGATCTGTAATTTTTTTTTTTTTTTTTTTTTTTTTTTTTT
DNA 2: ATCCTGAGCAGCTGTCTAGAGACATCGAT
B1: binds (FANCD2 WT;FANCI WT [1]).

B2: 44 bp dsDNA P1/P7 (FAM) (dsDNA)
DNA 1: ATCGATGTCTCTAGACAGCTGCTCAGGATTGATCTGTAATGGCC
DNA 2: GGCCATTACAGATCAATCCTGAGCAGCTGTCTAGAGACATCGAT
B2: binds (FANCD2 WT;FANCI WT [2]); binds [3].
